These results are taken from patent US20200040059A1.

Assay [1] has as its target CD112R (human) (UniProt Q6DKI7). The experiment in a line: flow cytometry, cells expressing target, 25 nM. (In flow cytometry, cells or beads pass a laser one at a time.)
Assay [2] addresses T1, CD226 (human) (UniProt Q15762).
T1 sequence: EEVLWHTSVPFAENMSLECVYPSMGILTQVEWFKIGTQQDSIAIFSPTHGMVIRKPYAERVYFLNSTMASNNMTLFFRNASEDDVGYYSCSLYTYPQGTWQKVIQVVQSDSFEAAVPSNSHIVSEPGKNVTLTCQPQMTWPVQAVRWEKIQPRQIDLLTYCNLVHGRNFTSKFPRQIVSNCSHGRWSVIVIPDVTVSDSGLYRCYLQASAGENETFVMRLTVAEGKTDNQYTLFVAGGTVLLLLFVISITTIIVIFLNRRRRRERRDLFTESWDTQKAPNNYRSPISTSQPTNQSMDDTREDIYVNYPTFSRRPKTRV
The assay is described as follows: flow cytometry, cells expressing target, 25 nM.

For assay [3], the target named is T2, TIGIT (human) (UniProt Q495A1).
T2 sequence: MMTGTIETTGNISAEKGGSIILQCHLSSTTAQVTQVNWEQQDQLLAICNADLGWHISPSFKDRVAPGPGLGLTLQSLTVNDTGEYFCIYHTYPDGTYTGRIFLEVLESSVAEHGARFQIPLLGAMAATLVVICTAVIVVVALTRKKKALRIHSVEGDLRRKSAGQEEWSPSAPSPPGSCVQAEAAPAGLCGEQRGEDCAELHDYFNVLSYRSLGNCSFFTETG
The experiment in a line: flow cytometry, cells expressing target, 25 nM.

Assay [4] deals with T3, CD96 (UniProt P40200).
T3 sequence (looked up): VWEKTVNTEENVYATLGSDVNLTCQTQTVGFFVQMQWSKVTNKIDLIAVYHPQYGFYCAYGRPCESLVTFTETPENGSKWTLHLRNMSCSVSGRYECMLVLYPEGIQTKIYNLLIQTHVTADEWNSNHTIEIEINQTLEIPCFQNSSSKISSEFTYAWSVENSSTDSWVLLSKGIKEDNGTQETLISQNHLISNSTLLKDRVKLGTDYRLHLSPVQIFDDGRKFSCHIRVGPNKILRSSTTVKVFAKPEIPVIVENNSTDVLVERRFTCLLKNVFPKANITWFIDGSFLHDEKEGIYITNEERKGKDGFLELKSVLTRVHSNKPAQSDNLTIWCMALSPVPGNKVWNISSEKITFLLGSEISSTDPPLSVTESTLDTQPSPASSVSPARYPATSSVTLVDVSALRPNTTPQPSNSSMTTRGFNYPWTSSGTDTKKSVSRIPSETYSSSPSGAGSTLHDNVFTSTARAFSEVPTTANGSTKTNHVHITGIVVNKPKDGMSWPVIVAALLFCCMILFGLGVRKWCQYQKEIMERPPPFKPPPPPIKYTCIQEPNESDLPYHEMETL
The experiment in a line: flow cytometry, cells expressing target, 25 nM.

Assay [5] has as its target T1, CD226 (human). The assay is described as follows: flow cytometry, CD226-expressing cells.
Assay [6] has as its target T3, CD96. The assay is described as follows: flow cytometry, CD96-expressing cells.
Assay [7] has as its target human CD28, full-length, expressed on transfected Expi293 cells (human) (UniProt P10747). The experiment in a line: flow cytometry on CD28-expressing Expi293 cells.
Assay [8] concerns the target T3, CD96. The experiment in a line: flow cytometry, cells.
For assay [9], the target named is T1, CD226 (human). The assay is described as follows: flow cytometry, transfected cells.

CD112R (human), sequence (Q6DKI7 whole entry): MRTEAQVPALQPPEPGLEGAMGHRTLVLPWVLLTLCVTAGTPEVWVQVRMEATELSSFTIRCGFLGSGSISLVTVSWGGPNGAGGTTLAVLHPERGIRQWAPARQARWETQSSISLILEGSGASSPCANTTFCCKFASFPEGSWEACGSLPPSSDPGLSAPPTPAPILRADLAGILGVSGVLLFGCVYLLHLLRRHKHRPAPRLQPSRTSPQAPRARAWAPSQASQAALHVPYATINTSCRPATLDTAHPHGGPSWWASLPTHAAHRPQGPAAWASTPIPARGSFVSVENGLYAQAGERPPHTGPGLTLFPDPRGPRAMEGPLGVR

B1: CD155 variant IgV-Fc V9L, P18F, T45A, S65A, S67V, R78K, L79V, F91S, T107M, S114T (Fc fusion, not shown: a dimerising Fc or GST; small tags and cut ends)
chain: PGTGDLVVQAPTQVFGFLGDSVTLPCYLQVPNMEVTHVSQLAWARHGESGSMAVFHQTQGPAYVESKRLEFVAAKVGAELRNASLRMSGLRVEDEGNYTCLFVMFPQGSRTVDIWL
For the molecule B1, the MFI at 25 nM was determined as 812 MFI in assay [1], 154000 MFI in assay [2], 130000 MFI in [3] and 85600 MFI in [4].

B2: CD155 variant IgV-Fc V9L, P18S, Q60R, V75L, L79P, R89K, F91S, L104E, G111R (Fc fusion, not shown: a dimerising Fc or GST; small tags and cut ends)
chain: PGTGDLVVQAPTQVSGFLGDSVTLPCYLQVPNMEVTHVSQLTWARHGESGSMAVFHRTQGPSYSESKRLEFLAARPGAELRNASLKMSGLRVEDEGNYTCEFVTFPQRSRSVDIWL
B2: the MFI at 11.1 nM in [5] stood at 986 MFI; in assay [6] it was 959 MFI.

B3: ICOSL variant F120S/Y152H/N201S ECD-Fc fusion (Fc fusion, not shown: a dimerising Fc or GST; small tags and cut ends)
chain: DTQEKEVRAMVGSDVELSCACPEGSRFDLNDVYVYWQTSESKTVVTYHIPQNSSLENVDSRYRNRALMSPAGMLRGDFSLRLFNVTPQDEQKFHCLVLSQSLGFQEVLSVEVTLHVAANSSVPVVSAPHSPSQDELTFTCTSINGYPRPNVHWINKTDNSLLDQALQNDTVFLNMRGLYDVVSVLRIARTPSVNIGCCIESVLLQQNLTVGSQTGNDIGERDKITENPVSTGEKNAAT
Consider B3, for which the MFI in assay [7] amounted to 16 MFI.

B4: CD155 variant IgV-Fc T15S, P18S, Y30H, Q32L, Q62R, L79P, F91S, T107M (Fc fusion, not shown: a dimerising Fc or GST; small tags and cut ends)
chain: PGTGDVVVQAPSQVSGFLGDSVTLPCHLLVPNMEVTHVSQLTWARHGESGSMAVFHQTRGPSYSESKRLEFVAARPGAELRNASLRMSGLRVEDEGNYTCLFVMFPQGSRSVDIWL
Take B4: the figures for the MFI at 25 nM in assay [1], in assay [2] and in assay [3] were 1060 MFI, 2090 MFI and 16200 MFI, respectively.

B5: CD155 variant IgV-Fc P18T, S52A, V57A, Q60R, Q62K, S65C, L79P, F91T, N100Y, T107M (Fc fusion, not shown: a dimerising Fc or GST; large carriers; small tags and cut ends)
chain: PGTGDVVVQAPTQVTGFLGDSVTLPCYLQVPNMEVTHVSQLTWARHGEAGSMAAFHRTKGPCYSESKRLEFVAARPGAELRNASLRMTGLRVEDEGYYTCLFVMFPQGSRSVDIWL
With B5, the MFI at 25 nM in [1] came to 908 MFI; in assay [3], 187000 MFI; in assay [4] it was 3790 MFI.

B6: CD155 variant IgV-Fc P18T, T45Q, T61R, S65N, S67L (Fc fusion, not shown: a dimerising Fc or GST; small tags and cut ends)
chain: PGTGDVVVQAPTQVTGFLGDSVTLPCYLQVPNMEVTHVSQLQWARHGESGSMAVFHQRQGPNYLESKRLEFVAARLGAELRNASLRMFGLRVEDEGNYTCLFVTFPQGSRSVDIWL
In the case of B6, the MFI at 100 nM in [6] is 22800 MFI.

B7: CD155 P18T, Q60K IgV-Fc (Fc fusion, not shown: a dimerising Fc or GST; small tags and cut ends)
chain: PGTGDVVVQAPTQVTGFLGDSVTLPCYLQVPNMEVTHVSQLTWARHGESGSMAVFHKTQGPSYSESKRLEFVAARLGAELRNASLRMFGLRVEDEGNYTCLFVTFPQGSRSVDIWL
Turning to B7, the figures for the MFI in assay [8] and in assay [9] were 154000 and 238000, respectively.

B8: CD155 P18T, T45A, F91S IgV-Fc (Fc fusion, not shown: a dimerising Fc or GST; small tags and cut ends)
chain: PGTGDVVVQAPTQVTGFLGDSVTLPCYLQVPNMEVTHVSQLAWARHGESGSMAVFHQTQGPSYSESKRLEFVAARLGAELRNASLRMSGLRVEDEGNYTCLFVTFPQGSRSVDIWL
Take B8: the values for the MFI in assay [8] and in [9] were 191000 and 436000, respectively.

B9: CD155 R94H IgV-Fc (Fc fusion, not shown: a dimerising Fc or GST; small tags and cut ends)
chain: PGTGDVVVQAPTQVPGFLGDSVTLPCYLQVPNMEVTHVSQLTWARHGESGSMAVFHQTQGPSYSESKRLEFVAARLGAELRNASLRMFGLHVEDEGNYTCLFVTFPQGSRSVDIWL
Regarding B9, the MFI in assay [8] was 11700; in assay [9], 18900.

B10: CD155 A13E, P18S, A56V, F91S IgV-Fc (Fc fusion, not shown: a dimerising Fc or GST; small tags and cut ends)
chain: PGTGDVVVQEPTQVSGFLGDSVTLPCYLQVPNMEVTHVSQLTWARHGESGSMVVFHQTQGPSYSESKRLEFVAARLGAELRNASLRMSGLRVEDEGNYTCLFVTFPQGSRSVDIWL
As for B10, the MFI turned out to be 119000 in [8] and 358000 in [9].
